Source: US10471162B2, “Collagen targeted imaging probes” (priority 2014, dated 2019)

How the values were obtained:
in vivo = assay type: in vivo, mouse; settings: male, C57/BL6, mouse, in vivo, iv, total radioactivity, Biodistribution % ID/g, sm. intestine
Procedure: (§1) Pulmonary fibrosis was induced in 7-8-week-old male C57/BL6 mice by transtracheal administration of bleomycin (BM; 2.5 U/kg) in 50 μL of PBS under direct vision using a small cervical incision. Sham animals received only PBS. Animals were placed in a small-animal PET/SPECT/CT scanner (Triumph; TriFoil Imaging), equipped with inhalation anesthesia and heating pad. Each animal was anesthetized with isoflurane (4% for induction, 2-2.5% for maintenance in medical air) and body temperature was kept at 37-38° C. using a heating pad. The femoral vein was cannulated for intravenous delivery of the PET agent. Each mouse was injected with approximately 0.1 mL and 20-50 μCi of ^64Cu-CBP(n), 0.1 mL and 20-50 μCi of ^68Ga-CBP(n) and 0.1 mL and 10-20 μCi of Al^18F-CBP(n) in a 18 mM solution of sucrose in water, followed by saline flush. […] The lungs, blood, urine, heart, liver, left rectus femoris muscle, spleen, small intestine, kidneys, left femur bone were collected from all animals. The tissues were weighed, and radioactivity in each tissue was measured on a gamma counter (CobraII Auto gamma; Packard). The radioactivity in the lung was reported as percent injected dose per gram corrected with the average sham weight, which was calculated by dividing the counts of ^64Cu per average sham tissue weight in gram by the total of counts of the injected dose. The radioactivity in every other tissue was reported as percent injected dose per gram (% ID/g), which was calculated by dividing the counts of ^64Cu per gram of tissue by the total of counts of the injected dose. A p-value of less than 0.05 was considered significant. Uncertainties are expressed as the standard error of the mean.

[1] = test system: pulmonary fibrosis, C57/BL6 mice (bleomycin or sham); assay: in vivo; assay type: in vivo, mouse; settings: in vivo, iv
Procedure: as §1

[2] = rat, in vivo
Procedure: The pharmacokinetics and metabolic stability of the probes were evaluated in Adult male Wistar rats. The right femoral vein was cannulated for intravenous delivery of the PET agent and the right femoral artery was cannulated for blood sampling. Each animal was injected with approximately 50-70 μCi of ^64Cu-CBP(n) diluted in 0.2-0.3 mL with an 18 mM solution of sucrose in water, followed by saline flush. After probe injection, several blood draws were collected at 0, 2, 5, 10, 15, 30, 60 and 120 minutes post injection into ethylenediaminetetraacetic acid (EDTA) blood tubes. Blood was weighed, and radioactivity in the blood was measured on a gamma counter to assess clearance of total ^64Cu. The serum was isolated by centrifugation of the blood (10 minutes, 4950 rpm) and proteins were precipitated with a mixture of cold methanol/acetonitrile (1/1). Solids were removed by centrifugation and the supernatant was injected onto an analytic HPLC column. The eluent was collected every 30 seconds, and the activity of each fraction was measured using a gamma counter. The result was compared with standards of pure probe and probe immediately isolated from plasma (t=0 sample).

[3] = test system: pulmonary fibrosis, C57/BL6 mice (bleomycin or sham); settings: mouse, in vivo
Procedure: Pulmonary fibrosis was induced in 7-8-week-old male C57/BL6 mice by transtracheal administration of bleomycin (BM; 2.5 U/kg) in 50 μL of PBS under direct vision using a small cervical incision. Sham animals received only PBS. Animals were placed in a small-animal PET/SPECT/CT scanner (Triumph; TriFoil Imaging), equipped with inhalation anesthesia and heating pad. Each animal was anesthetized with isoflurane (4% for induction, 1-1.5% for maintenance in medical air). After placement of an in-dwelling catheter in the femoral vein for probe administration, mice were positioned in the PET-CT and the probe was given as a bolus as the PET acquisition began. Mice were imaged continuously by PET for 120 minutes. […] Instrument calibration was performed with phantoms containing small known amounts of radioactivity. […] Reconstructed PET/CT data were quantitatively evaluated using AMIDE software package (Loening and Gambhir, 2003). […] The radioactivity concentration within organs was obtained from mean pixel values within the VOI volume and converted to counts per milliliter per minute and then divided by the injected dose (ID) to obtain an imaging VOI-derived percentage of the injected radioactive dose per cubic centimeter of tissue (% ID/cc). […] Instrument calibration was performed with phantoms containing small known amount of radioactivity. […]

rat tail collagen = biological target: T1, rat tail collagen (Rattus norvegicus, UniProt P02454+P02466); assay: rat tail collagen-binding assay; settings: 2 hours at room temperature, single binding site model
T1 construct: from tissue; host or cells: rat tail
T1 sequence (P02454 152-1207 limits assumed): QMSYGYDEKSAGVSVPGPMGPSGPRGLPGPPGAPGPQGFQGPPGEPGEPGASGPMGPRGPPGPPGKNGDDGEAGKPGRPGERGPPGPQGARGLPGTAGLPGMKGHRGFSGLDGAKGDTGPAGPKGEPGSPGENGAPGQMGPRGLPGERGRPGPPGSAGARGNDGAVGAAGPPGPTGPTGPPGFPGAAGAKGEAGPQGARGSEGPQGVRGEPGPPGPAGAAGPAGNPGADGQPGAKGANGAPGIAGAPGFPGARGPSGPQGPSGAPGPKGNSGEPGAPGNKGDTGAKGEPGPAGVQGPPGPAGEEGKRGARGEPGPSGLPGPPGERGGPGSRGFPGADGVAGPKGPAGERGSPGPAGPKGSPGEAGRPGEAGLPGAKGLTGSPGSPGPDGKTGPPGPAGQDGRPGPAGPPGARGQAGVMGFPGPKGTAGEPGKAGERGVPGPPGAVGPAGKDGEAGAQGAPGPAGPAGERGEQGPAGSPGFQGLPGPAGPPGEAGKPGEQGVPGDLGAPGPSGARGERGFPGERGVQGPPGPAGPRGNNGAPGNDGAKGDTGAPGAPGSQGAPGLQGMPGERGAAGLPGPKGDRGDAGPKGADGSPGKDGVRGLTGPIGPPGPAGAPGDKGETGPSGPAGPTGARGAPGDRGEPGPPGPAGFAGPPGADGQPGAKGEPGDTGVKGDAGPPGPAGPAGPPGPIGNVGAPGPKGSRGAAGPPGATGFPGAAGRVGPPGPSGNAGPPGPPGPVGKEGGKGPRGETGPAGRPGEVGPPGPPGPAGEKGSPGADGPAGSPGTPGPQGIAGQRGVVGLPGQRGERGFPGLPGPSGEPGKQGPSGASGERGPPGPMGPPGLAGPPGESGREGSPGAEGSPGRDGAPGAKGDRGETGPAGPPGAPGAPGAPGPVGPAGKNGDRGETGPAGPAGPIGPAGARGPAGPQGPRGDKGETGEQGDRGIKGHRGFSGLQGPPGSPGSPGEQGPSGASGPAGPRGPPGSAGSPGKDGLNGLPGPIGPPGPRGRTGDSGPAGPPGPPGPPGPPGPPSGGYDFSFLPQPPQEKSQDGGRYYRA
T1 sequence (P02466 86-1125 limits assumed): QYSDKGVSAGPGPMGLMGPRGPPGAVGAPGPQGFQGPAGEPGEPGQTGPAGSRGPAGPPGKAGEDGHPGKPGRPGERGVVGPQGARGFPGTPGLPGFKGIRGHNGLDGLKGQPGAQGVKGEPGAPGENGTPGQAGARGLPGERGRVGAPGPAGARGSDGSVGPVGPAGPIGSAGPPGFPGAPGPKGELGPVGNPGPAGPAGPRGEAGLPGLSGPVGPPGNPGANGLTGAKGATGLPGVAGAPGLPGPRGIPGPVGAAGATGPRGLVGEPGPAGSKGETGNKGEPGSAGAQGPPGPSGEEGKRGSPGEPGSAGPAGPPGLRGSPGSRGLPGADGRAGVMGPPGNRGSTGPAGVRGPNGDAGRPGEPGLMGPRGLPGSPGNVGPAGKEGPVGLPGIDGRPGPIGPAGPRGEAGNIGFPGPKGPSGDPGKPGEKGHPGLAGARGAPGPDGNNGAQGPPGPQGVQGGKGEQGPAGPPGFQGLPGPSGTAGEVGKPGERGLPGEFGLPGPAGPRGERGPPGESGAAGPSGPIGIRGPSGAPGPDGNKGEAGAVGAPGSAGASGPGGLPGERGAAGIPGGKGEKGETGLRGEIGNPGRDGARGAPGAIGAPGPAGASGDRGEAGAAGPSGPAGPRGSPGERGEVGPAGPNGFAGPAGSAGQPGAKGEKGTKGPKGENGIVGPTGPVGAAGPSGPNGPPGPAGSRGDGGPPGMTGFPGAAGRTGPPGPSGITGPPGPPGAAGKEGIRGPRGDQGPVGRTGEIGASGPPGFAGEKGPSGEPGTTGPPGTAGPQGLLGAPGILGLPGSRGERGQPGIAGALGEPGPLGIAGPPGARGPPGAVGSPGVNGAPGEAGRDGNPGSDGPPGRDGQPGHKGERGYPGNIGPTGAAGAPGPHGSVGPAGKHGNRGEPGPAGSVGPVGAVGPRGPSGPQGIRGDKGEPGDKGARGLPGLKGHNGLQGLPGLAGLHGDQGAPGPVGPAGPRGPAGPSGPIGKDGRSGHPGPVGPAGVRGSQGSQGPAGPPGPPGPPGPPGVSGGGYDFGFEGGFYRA
Procedure: Binding isotherms were obtained by following a method previously reported. (Caravan, P., Das, B., Dumas, S., Epstein, F. H., Helm, P. A., Jacques, V., Koerner, S., Kolodziej, A., Shen, L., Sun, W., Zhang, Z., Angewandte Chemie, 2007, 119(43), 8319-8321.) Briefly, increasing concentrations of a mixture of ^63/65Cu-CBP(n) and ^64Cu-CBP(n) were added to collagen containing wells. […] An aliquot of each solution was reserved as a measure of the total concentration. The plates were incubated on a shaker table (300 rpm) for 2 hours at room temperature to allow the compound to bind. After 2 hours, the supernatant from each well (with or without collagen) was assayed for ^64Cu content. The relative amount of free, unbound compound in the sample supernatants and the amount of compound in the reserved (total) sample were determined by using a gamma counter. The bound concentration is [Total]−[Free]. The concentration of ^63/65Cu-CBP(n) was less than the collagen concentration and the data were fit to a model of a single binding site with dissociation constant, Kd.

## CC(C)C[C@H](NC(=O)[C@@H]1CSSC[C@H](NC(=O)[C@H](Cc2c[nH]cn2)NC(=O)[C@H](Cc2c[nH]c3ccccc23)NC(=O)[C@H](CCCCNC(=O)CNC(=O)CCC(C(=O)O)N2CCN(CC(=O)O)CCN(CC(=O)O)CC2)NC(=O)CNC(=O)CCC(C(=O)O)N2CCN(CC(=O)O)CCN(CC(=O)O)CC2)C(=O)N[C@@H]([C@@H](C)O)C(=O)N[C@@H]([C@@H](C)O)C(=O)N[C@@H](CCCCNC(=O)CCC(C(=O)O)N2CCN(CC(=O)O)CCN(CC(=O)O)CC2)C(=O)N[C@@H](Cc2ccccc2)C(=O)N2CCC[C@H]2C(=O)N[C@@H](Cc2c[nH]cn2)C(=O)N[C@@H](Cc2c[nH]cn2)C(=O)N[C@@H](Cc2ccc(O)cc2)C(=O)N1)C(=O)N[C@@H](Cc1ccc(O)cc1)C(=O)N[C@@H](Cc1ccc(-c2ccccc2)cc1)C(N)=O (single isomer, unassigned) [CBP7]
In vivo
  tissue uptake at 2 h: 0.853 ± 0.246 %ID/g
[1]; male, C57/BL6, mouse, 2 h
  Biodistribution % ID/g, sm. intestine: 0.877 ± 0.077 % ID/g
[1]; mouse
  route of excretion: excreted mainly through the kidneys
[2]
  metabolic stability compared with CBP(n) probes with a single NODAGA chelator: more metabolically stable
[3]
  Mean PET activity in heart and muscle, BM-treated vs sham, in words: not significantly different
Rat tail collagen
  Kd: 2400 ± 1500 nM
